One block for each molecule: values may come before it.
Tests used:
[1] = molecular target: AQP2 protein (eukaryotic expression, purified; Flag-Mcherry tag excised) (UniProt P41181); assay: SPR; BIAcore T200; AQP2 immobilised on CM5 chip by amine coupling (10 mM NaAc, pH 4.0); MIAC peptide injected; HBS-EP buffer; equilibrium Req values of 5 concentrations fitted to 1:1 binding
[2] = molecular target: chemosynthetic peptide MIAC labeled by CY5; assay: MST; CY5-labeled MIAC with AQP2 protein, incubated 5 min at room temperature, premium-coated capillaries, Monolith NT.115

- Kd [1]: 5.13 µM
Molecule: chemically synthesized MIAC polypeptide

- Kd [2]: 6.92 µM
B1: AQP2 protein (eukaryotic expression, purified; Flag-Mcherry tag excised) (natural protein)
chain: MWELRSIAFSRAVFAEFLATLLFVFFGLGSALNWPQALPSVLQIAMAFGLGIGTLVQALGHISGAHINPAVTVACLVGCHVSVLRAAFYVAAQLLGAVAGAALLHEITPADIRGDLAVNALSNSTTAGQAVTVELFLTLQLVLCIFASTDERRGENPGTPALSIGFSVALGHLLGIHYTGCSMNPARSLAPAVVTGKFDDHWVFWIGPLVGAILGSLLYNYVLFPPAKSLSERLAVLKGLEPDTDWEEREVRRRQSVELHSPQSLPRGTKA

Source: article PMC9484220
